Laboratory results from paper PMC7927982.

These binders were tested against T1, LARP1 La-Module (Homo sapiens, UniProt Q6PKG0-3 310-540) (assay: EMSA).

Row | Binder | Kd [nM]
1 | AAAAAAAAAAAAAAAAAAAAAAAAA (ssRNA) [poly(A) 25-mer] | 40 ± 1

Molecular target: T1, LARP1 La-Module
Test: EMSA
Remark: another data set of the same source

Row | Binder | binding result
2 | AAGCGGCUGCCGAAG (ssRNA) [RPL13A 5'UTR delTOP] | no binding
3 | CCUUUUCCAAGCGGCUGCCGAAG (ssRNA) [RPL13A 5'UTR] | binds
4 | CCUCUUUUCCGUGGCGCCUCGGAGGCGUUCAGCUGCUUCAAG (ssRNA) [RPS6 5'UTR] | binds
5 | GUGGCGCCUCGGAGGCGUUCAGCUGCUUCAAG (ssRNA) [RPS6 5'UTR delTOP] | no binding
6 | CCUUCUCCCCGGCGGUUAGUGCUGAGAGUGCGGAGUGUGUG (ssRNA) [PABPC1 42-mer] | no binding
7 | AAGAUUUUUUGAGUAACAAAU (ssRNA) [RPS6 3'UTR] | no binding
8 | CUCUCUUCCACAGGAGGCCUACACGCCGCCGCUUGUGCUGCAGCC (ssRNA) [RPS18 5'UTR] | no binding

The binders below were run against T1, LARP1 La-Module (assay: competition).

Row | Binder | binding result
9 | GGGGGGGGGGGGGGGGGGG (ssRNA) [poly(G) 19-mer] | binds
